Usually Kd stands for the equilibrium constant for the complex coming apart. Read a high Kd as a looser complex.

The target in this test is T1, human APRIL (a proliferation-inducing ligand) (human), O75888.
T1 chain: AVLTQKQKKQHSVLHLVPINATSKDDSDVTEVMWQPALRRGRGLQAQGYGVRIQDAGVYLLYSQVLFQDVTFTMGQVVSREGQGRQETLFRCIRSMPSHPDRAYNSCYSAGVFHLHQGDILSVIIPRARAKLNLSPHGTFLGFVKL
Briefly: FACS. The conditions noted are these: domain or fragment; chains chain; remark: other sources report otherwise.

B1: yeast-displayed wild-type sBCMA (human BCMA extracellular domain, Met1-Ala54), Q02223 1-54 (protein)
chain: MLQMAGQCSQNEYFDSLLHACIPCQLRCSSNTPPLTCQRYCNASVTNSVKGTNA
B1 gave an equilibrium dissociation constant (Kd) of 25 pM.
